Data reported in US20210380678A1 (published 2021).

Assays:
[1] = biological target: T1, human ASGR1 extracellular domain (hASGR1 ECD) (UniProt P07306 62-291, biotinylated (His-Avi tag)); assay: BLI; steady-state fit
T1 chain: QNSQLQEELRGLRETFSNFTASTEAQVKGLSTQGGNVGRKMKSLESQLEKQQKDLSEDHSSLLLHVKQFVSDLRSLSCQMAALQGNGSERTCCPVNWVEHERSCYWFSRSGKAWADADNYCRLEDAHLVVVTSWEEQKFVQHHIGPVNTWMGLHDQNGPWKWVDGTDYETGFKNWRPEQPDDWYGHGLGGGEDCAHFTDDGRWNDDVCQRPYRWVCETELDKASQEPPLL

[2] = biological target: T2, Fc portion of human IgG1-fused LGR5-ECD (R&D systems) (UniProt O75473 22-557); assay: BLI steady-state
T2 chain: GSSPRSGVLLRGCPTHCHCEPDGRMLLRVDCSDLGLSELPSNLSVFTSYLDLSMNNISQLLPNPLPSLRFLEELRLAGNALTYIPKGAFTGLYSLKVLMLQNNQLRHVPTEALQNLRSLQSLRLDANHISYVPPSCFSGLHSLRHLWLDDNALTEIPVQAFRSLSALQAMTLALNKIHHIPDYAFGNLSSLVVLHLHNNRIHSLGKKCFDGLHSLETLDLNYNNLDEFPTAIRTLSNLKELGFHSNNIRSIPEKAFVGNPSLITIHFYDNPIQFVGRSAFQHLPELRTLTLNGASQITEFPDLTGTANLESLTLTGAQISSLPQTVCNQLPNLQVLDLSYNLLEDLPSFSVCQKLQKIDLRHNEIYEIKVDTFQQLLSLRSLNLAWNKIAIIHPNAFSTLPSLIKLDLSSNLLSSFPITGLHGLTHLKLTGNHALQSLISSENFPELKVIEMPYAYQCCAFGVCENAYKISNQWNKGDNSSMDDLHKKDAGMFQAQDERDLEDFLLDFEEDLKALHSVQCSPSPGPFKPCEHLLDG

[3] = biological target: T3, human RNF43 extracellular domain (hRNF43 ECD) (UniProt Q68DV7 44-197, biotinylated (His-Avi tag)); assay: BLI; steady-state fit
T3 chain: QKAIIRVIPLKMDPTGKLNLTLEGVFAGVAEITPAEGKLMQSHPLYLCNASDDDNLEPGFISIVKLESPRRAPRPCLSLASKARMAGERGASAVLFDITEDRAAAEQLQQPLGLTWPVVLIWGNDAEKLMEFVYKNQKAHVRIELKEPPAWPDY

[4] = biological target: T4, human ZNRF3 extracellular domain (hZNRF3 ECD) (UniProt Q9ULT6 56-219, biotinylated (His-Avi tag)); assay: BLI; steady-state fit
T4 chain: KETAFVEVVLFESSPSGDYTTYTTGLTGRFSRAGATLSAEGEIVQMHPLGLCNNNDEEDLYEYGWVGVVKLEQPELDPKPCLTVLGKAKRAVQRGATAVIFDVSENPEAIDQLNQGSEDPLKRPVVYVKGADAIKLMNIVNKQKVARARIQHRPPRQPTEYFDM

[5] = biological target: T3, human RNF43 extracellular domain …; assay: BLI steady-state
[6] = biological target: T4, human ZNRF3 extracellular domain …; assay: BLI steady-state
[7] = biological target: T1, human ASGR1 extracellular domain …; assay: BLI
[8] = biological target: T5, mouse ASGR1 extracellular domain (mASGR1 ECD) (biotinylated (His-Avi tag)); assay: BLI
T5 chain: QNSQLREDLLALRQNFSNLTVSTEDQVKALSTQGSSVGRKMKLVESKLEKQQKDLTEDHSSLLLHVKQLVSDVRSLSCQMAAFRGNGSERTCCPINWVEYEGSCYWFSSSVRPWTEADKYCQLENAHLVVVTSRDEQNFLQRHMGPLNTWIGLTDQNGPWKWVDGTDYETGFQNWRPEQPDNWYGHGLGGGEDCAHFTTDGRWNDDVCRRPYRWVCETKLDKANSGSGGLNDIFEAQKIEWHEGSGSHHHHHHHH

[9] = biological target: T1, human ASGR1 extracellular domain …; assay: BLI
[10] = biological target: T6, human ASGR2 extracellular domain (hASGR2 ECD) (UniProt P07307 86-311, biotinylated (His/Avi tag)); assay: BLI
T6 chain: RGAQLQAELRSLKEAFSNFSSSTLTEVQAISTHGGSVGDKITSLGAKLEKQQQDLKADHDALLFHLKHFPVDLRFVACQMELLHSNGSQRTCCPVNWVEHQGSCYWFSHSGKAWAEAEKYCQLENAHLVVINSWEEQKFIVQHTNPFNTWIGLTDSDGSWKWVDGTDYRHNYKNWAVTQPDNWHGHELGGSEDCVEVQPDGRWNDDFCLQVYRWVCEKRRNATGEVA

B1: 024S-E03 Fab (Fab, V domains shown)
VH: QVQLQQSGPGLVKPSQTLSLTCAISGASVSSNSAAWNWIRQSPSRGLEWLGRTYYRSKWYNDYAVSVKSRITINPDTSKNQFSLQLNSVTPGDTAVYYCARWNHEEHYFDYWGQGTLVTVSS
VL: DVVMTQSPATLSFSPGERATLSCRASQSVGSYLAWYQQRPGQAPRPLIYDATNRATGIPTRFSGSGSGTDFTLTISSLEPEDFATYYCQHRRTFGRGTKLEIK
Question: Which Kd [1] does the source give for B1 here?
Answer: Its Kd is 180 nM.

B2: αTFR1-RSPO2-WT (anti-TFR1, RSPO2 wild type) (other)
chain: QVQLQQSGPELVRPGVSVKISCKGSGYTFTDYAMHWVKQSHAKSLEWIGGISTYFGRTNYNQKFKGRATMTVDKSSSTAYMELARLTSEDSALYYCARGLSGNYVMDYWGQGTSVTVSSGGGGSGGGGSGGGGSDIVLFQSPASLAVSLGQRATISCRASESVDDYGNSFMHWYQQKPGQPPKLLIYRASNLESGIPARFSGSGSRTDFTLTINPVEADDVATYYCQQSNEAPPTFGGGTKLEIRGSGGSNPICKGCLSCSKDNGCSRCQQKLFFFLRREGMRQYGECLHSCPSGYYGHRAPDMNRCARCRIENCDSCFSKDFCTKCKVGFYLHRGRCFDECPDGFAPLEETMECVEGGDYKDDDDKGSHHHHHHHH
Question: What does the source list for B2?
Answer: Kd [2]: 5 nM; Kd [3]: 44 nM; Kd [4]: 72 nM

B3: αGFP-RSPO2-RA (anti-GFP, RSPO2 (F105R/F109A)) (other)
chain: QVQLVESGGGLVQPGGSLRLSCAASGFTFSRYGMHWVRQAPGKGLEWVSGISSIGSNTYYADSVKGRFTISRDNSKNTLYLQMNSLRAEDTAVYYCARWYKTYIDVWGQGTLVTVSSGGGGSGGGGSGGGGSDIELTQPPSVSVAPGQTARISCSGDNLGKKYVYWYQQKPGQAPVLVIYGDDERPSGIPERFSGSNSGNTATLTISGTQAEDEADYYCASYDSSHILIVFGGGTKLTVLGSGGSNPICKGCLSCSKDNGCSRCQQKLFFFLRREGMRQYGECLHSCPSGYYGHRAPDMNRCARCRIENCDSCRSKDACTKCKVGFYLHRGRCFDECPDGFAPLEETMECVEGGDYKDDDDKGSHHHHHHHH
Question: Which results are given for B3?
Answer: Kd [5]: 31 nM; Kd [6]: 170 nM

B4: LP1-2I13 Fab (Fab, V domains shown)
VH: EVQLVESGGGLVKPGGSRKLSCAASGFTFSDYGMHWVRQAPEKGLEWVAYISSGSSTIYYADTVKGRFTISRDNAKNTLFLQMTSLRSEDTAMYYCSRKGGFGDYEKSYAMDYWGQGTSVTVSS
VL: DIQMTQSPASLSASVGETVTITCRASENIYSYLVWYQQKQGKSPQLLVYNAKTLAEGVPSRFSGSGSGTQFSLKINSLQPEDFGSYYCQHHYGTWTFGGGIKLEIK
Question: How did the Kd [7] turn out when B4 was run?
Answer: Its Kd is 7.3 nM.

B5: αGFP-RSPO2-WT (anti-GFP, RSPO2 wild type) (other)
chain: QVQLVESGGGLVQPGGSLRLSCAASGFTFSRYGMHWVRQAPGKGLEWVSGISSIGSNTYYADSVKGRFTISRDNSKNTLYLQMNSLRAEDTAVYYCARWYKTYIDVWGQGTLVTVSSGGGGSGGGGSGGGGSDIELTQPPSVSVAPGQTARISCSGDNLGKKYVYWYQQKPGQAPVLVIYGDDERPSGIPERFSGSNSGNTATLTISGTQAEDEADYYCASYDSSHILIVFGGGTKLTVLGSGGSNPICKGCLSCSKDNGCSRCQQKLFFFLRREGMRQYGECLHSCPSGYYGHRAPDMNRCARCRIENCDSCFSKDFCTKCKVGFYLHRGRCFDECPDGFAPLEETMECVEGGDYKDDDDKGSHHHHHHHH
Question: Which Kd [5] does the source give for B5 here?
Answer: Its Kd is 42 nM.

Question: What about the Kd [6] of the same binder?
Answer: Its Kd is 160 nM.

B6: anti-ASGR1 Fab (Fab, V domains shown)
VH: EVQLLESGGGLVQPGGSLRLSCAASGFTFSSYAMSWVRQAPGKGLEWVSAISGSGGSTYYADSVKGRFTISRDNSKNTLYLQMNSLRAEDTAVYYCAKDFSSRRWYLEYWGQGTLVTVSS
VL: DIELTQDPAVSVALGQTVRITCQGDSLRSYYASWYQQKPGQAPVLVIYGKNNRPSGIPDRFSGSSSGNTASLTITGAQAEDEADYYCNSLERIGYLSYVFGGGTKLTVLG
Question: Which Kd [8] does the source give for B6 here?
Answer: Its Kd is 213 nM.

Question: What about the Kd [9] of the same binder?
Answer: Its Kd is 349 nM.

B7: αTFR1-RSPO2-RA (anti-TFR1, RSPO2 (F105R/F109A)) (other)
chain: QVQLQQSGPELVRPGVSVKISCKGSGYTFTDYAMHWVKQSHAKSLEWIGGISTYFGRTNYNQKFKGRATMTVDKSSSTAYMELARLTSEDSALYYCARGLSGNYVMDYWGQGTSVTVSSGGGGSGGGGSGGGGSDIVLFQSPASLAVSLGQRATISCRASESVDDYGNSFMHWYQQKPGQPPKLLIYRASNLESGIPARFSGSGSRTDFTLTINPVEADDVATYYCQQSNEAPPTFGGGTKLEIRGSGGSNPICKGCLSCSKDNGCSRCQQKLFFFLRREGMRQYGECLHSCPSGYYGHRAPDMNRCARCRIENCDSCRSKDACTKCKVGFYLHRGRCFDECPDGFAPLEETMECVEGGDYKDDDDKGSHHHHHHHH
Question: What does the source list for B7?
Answer: Kd [3]: 45 nM; Kd [4]: 75 nM

B8: Abv-10B8 Fab (Fab, V domains shown)
VH: DVKLVESGEGLVKPGGSLKLSCAASGFTFSSYAMSWVRQTPEKRLEWVAYISSGGDYIYYVDTVKGRFTISRDNARNTLYLQMSSLKSEDTAVYYCTREGTGGMDYWGQGTSVTVSS
VL: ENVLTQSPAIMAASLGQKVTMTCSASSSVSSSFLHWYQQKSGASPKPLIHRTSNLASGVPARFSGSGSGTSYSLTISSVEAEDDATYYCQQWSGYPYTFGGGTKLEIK
Question: Which Kd [10] does the source give for B8 here?
Answer: The Kd was 230 nM.

B9: Abv-3D11 Fab (Fab, V domains shown)
VH: EVQLVESGGGLVQPKGSLKLSCAASGFSFNTYAMNWVRQAPGKGLEWVARIRSKSNNYATYYADSVKDRFTISRDDSESMLYLQMNNLKTEDTAMYYCVRPRYDYWYFDVWGTGTTVTVSS
VL: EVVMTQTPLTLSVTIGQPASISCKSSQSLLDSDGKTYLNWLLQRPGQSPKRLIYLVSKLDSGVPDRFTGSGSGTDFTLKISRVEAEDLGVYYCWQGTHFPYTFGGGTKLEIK
Question: With B9 as the binder, how does the Kd [10] read?
Answer: The Kd was 110 nM.

B10: 024S-A04 Fab (Fab, V domains shown)
VH: QVQLQQSGPGLVKPSQTLSLTCAISGDSVSSNSVAWNWMRQSPSRGLEWLGRTYYRSKWYYDYAVSVKSRITINPDTSKNQFSLQLNSVTPEDTAVYYCASWTRGAFDIWGQGTMVTVSS
VL: DIQLTQSPATLSFSPGERATLSCRASQSVGSYLAWYQQRPGQAPRPLIYDATNRATGIPTRFSGSGSGTDFTLTISSLEPEDFATYYCQHRRTFGRGTKLEIK
Question: How did the Kd [1] turn out when B10 was run?
Answer: Its Kd is 100 nM.

B11: LP1-8M24 Fab (Fab, V domains shown)
VH: QVQLQQSGAELARPGASVKLSCKASGYTFTNYGINWVKQRTGQGLEWIGEIFPRSDNTFYNEKFKGKATLTADKSSTTAYMELRSLTSEDSAVYFCARKGRDYGTSHYFDYWGQGTTLTVSS
VL: DIQMTQSPASLSVSVGETVTITCRISENIYSNLAWYQQKQGKSPHLLVYAAINLADGVPSRFSGSGSGTQFSLKINSLQSEDFGSYYCQHFWGTPFTFGSGTKLEIK
Question: Which Kd [7] does the source give for B11 here?
Answer: The Kd was 0.17 nM.

B12: 024S-D03 Fab (Fab, V domains shown)
VH: QVQLQQSGPGLVKPSQTLSLTCAISGDSVSSNSAAWNWMRQSPSRGLEWLGRTYYRSKWYNDYAVSVKSRMTINPDTSRNQFSLQLNSVTLEDTAVYYCARWNHEEHYFDYWGQGTLVTVSS
VL: EIVLTQSPATLSFSPGERATLSCRASQSVGSYLAWYQQRPGQAPRPLIYDATNRATGIPTRFSGSGSGTDFTLTISSLEPEDFATYYCQHRRTFGRGTKLEIK
Question: For B12, which Kd [1] is on record?
Answer: The Kd was 130 nM.
